Positions of bridges follow the written chain, without caps; N, C: chain ends. Non-standard residues stand in square brackets, D forms with d. dPhe(4-Cl) = N[C@H](Cc1ccc(Cl)cc1)C(=O)O; dPhe(4-Me) = Cc1ccc(C[C@@H](N)C(=O)O)cc1; dPhe(4-F) = N[C@H](Cc1ccc(F)cc1)C(=O)O; Nle = CCCC[C@H](N)C(=O)O; Thz = O=C(O)[C@@H]1CSCN1; Aib = CC(C)(N)C(=O)O
Columns and labels:
[1] = biological target: T1, human MC4 receptor (human, UniProt P32245 1-332); experiment: cell-based or functional assay
[2] = biological target: T2, human MC1 receptor (human, UniProt Q01726 1-317); experiment: SPA competition binding, displacement of 125I-NDP-α-MSH, BHK membranes with human MC1R
T2 construct: whole, on cells; cAMP assay used whole BHK cells; also called melanocortin 1 receptor
Description: (§1) The SPA Binding assay was performed in 96-well white opaque plates. Each well contained: 0.5 mg PVT-WGA SPA beads, MC1 receptor expressing membrane diluted to give approximately 10% specific tracer binding, 50.000 dpm ¹²⁵I-NDP-α-MSH and relevant dilutions of test compound. The final volume in each well was 200 μl. […] Plates were incubated overnight (22-24 hours) at room temperature before counting for 2 minutes per well, using a TopCount NXT scintillation counter. Displacement of radio ligand is measured as reduction in light emission from SPA beads, and IC₅₀ values are calculated by nonlinear regression analysis of sigmoidal dose-response curves in GraphPad Prism (GraphPad Software, La Jolla, Calif., USA).

[3] = biological target: T1, human MC4 receptor; experiment: SPA competition binding, displacement of 125I-NDP-α-MSH, BHK membranes with human MC4R
Description: as §1, with “MC4” for “MC1”

[4] = biological target: T2, human MC1 receptor; experiment: cell-based or functional assay

T2 sequence (Q01726 whole entry): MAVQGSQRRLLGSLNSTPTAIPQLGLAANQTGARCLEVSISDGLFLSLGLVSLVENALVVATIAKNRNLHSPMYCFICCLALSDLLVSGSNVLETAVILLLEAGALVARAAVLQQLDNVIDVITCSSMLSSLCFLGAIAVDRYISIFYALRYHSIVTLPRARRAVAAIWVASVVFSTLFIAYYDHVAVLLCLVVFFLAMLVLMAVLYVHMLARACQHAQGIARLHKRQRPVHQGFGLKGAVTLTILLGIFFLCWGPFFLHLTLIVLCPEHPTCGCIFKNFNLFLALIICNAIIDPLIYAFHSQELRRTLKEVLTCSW
T1 sequence (P32245 whole entry): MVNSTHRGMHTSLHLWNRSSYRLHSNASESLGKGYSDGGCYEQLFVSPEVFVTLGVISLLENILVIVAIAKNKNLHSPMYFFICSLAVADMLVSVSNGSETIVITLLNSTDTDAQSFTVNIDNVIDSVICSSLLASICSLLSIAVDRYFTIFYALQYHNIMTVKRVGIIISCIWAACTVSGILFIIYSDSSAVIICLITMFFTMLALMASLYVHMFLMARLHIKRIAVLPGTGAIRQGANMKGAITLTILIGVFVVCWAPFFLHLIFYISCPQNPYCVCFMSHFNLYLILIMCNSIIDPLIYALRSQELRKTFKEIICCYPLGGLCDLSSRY

Binder | MC4R cAMP EC50 [1] | IC50 [2] | IC50 [3] | MC1R cAMP EC50 [4]
Ac-RCPH[dF]HWCPP[dR]E[Nle]-NH2 (disulfide 2-8; SMILES CCCC[C@H](NC(=O)[C@H](CCC(=O)O)NC(=O)[C@@H](CCCNC(=N)N)NC(=O)[C@@H]1CCCN1C(=O)[C@@H]1CCCN1C(=O)[C@@H]1CSSC[C@H](NC(=O)[C@H](CCCNC(=N)N)NC(C)=O)C(=O)N2CCC[C@H]2C(=O)N[C@@H](Cc2c[nH]cn2)C(=O)N[C@H](Cc2ccccc2)C(=O)N[C@@H](Cc2c[nH]cn2)C(=O)N[C@@H](Cc2c[nH]c3ccccc23)C(=O)N1)C(N)=O, Synthetic cyclic peptide; also called Chem. 1) [Ac-Arg-c[Cys-Pro-His-D-Phe-His-Trp-Cys]-Pro-Pro-D-Arg-Glu-Nle-NH2] | 1.51 nM | 374 nM | 1.47 nM | –
Ac-[dR]CPH[dF]HWCPP[dR]E[Nle]-NH2 (disulfide 2-8; SMILES CCCC[C@H](NC(=O)[C@H](CCC(=O)O)NC(=O)[C@@H](CCCNC(=N)N)NC(=O)[C@@H]1CCCN1C(=O)[C@@H]1CCCN1C(=O)[C@@H]1CSSC[C@H](NC(=O)[C@@H](CCCNC(=N)N)NC(C)=O)C(=O)N2CCC[C@H]2C(=O)N[C@@H](Cc2c[nH]cn2)C(=O)N[C@H](Cc2ccccc2)C(=O)N[C@@H](Cc2c[nH]cn2)C(=O)N[C@@H](Cc2c[nH]c3ccccc23)C(=O)N1)C(N)=O, Synthetic cyclic peptide; also called Chem. 7) [Ac-D-Arg-c[Cys-Pro-His-D-Phe-His-Trp-Cys]-Pro-Pro-D-Arg-Glu-Nle-NH2] | 2.72 nM | 816 nM | 6.31 nM | 649 nM
Ac-RCPH[dF]HWCPP[dR]E[Nle]K-NH2 (disulfide 2-8; SMILES CCCC[C@H](NC(=O)[C@H](CCC(=O)O)NC(=O)[C@@H](CCCNC(=N)N)NC(=O)[C@@H]1CCCN1C(=O)[C@@H]1CCCN1C(=O)[C@@H]1CSSC[C@H](NC(=O)[C@H](CCCNC(=N)N)NC(C)=O)C(=O)N2CCC[C@H]2C(=O)N[C@@H](Cc2c[nH]cn2)C(=O)N[C@H](Cc2ccccc2)C(=O)N[C@@H](Cc2c[nH]cn2)C(=O)N[C@@H](Cc2c[nH]c3ccccc23)C(=O)N1)C(=O)N[C@@H](CCCCN)C(N)=O, Synthetic cyclic peptide; also called Chem. 2) [Ac-Arg-c[Cys-Pro-His-D-Phe-His-Trp-Cys]-Pro-Pro-D-Arg-Glu-Nle-Lys-NH2] | 1.17 nM | 144 nM | 0.71 nM | 288 nM
Ac-RCPH[dF]HWCPP[dR]E[Nle]R-NH2 (disulfide 2-8; SMILES CCCC[C@H](NC(=O)[C@H](CCC(=O)O)NC(=O)[C@@H](CCCNC(=N)N)NC(=O)[C@@H]1CCCN1C(=O)[C@@H]1CCCN1C(=O)[C@@H]1CSSC[C@H](NC(=O)[C@H](CCCNC(=N)N)NC(C)=O)C(=O)N2CCC[C@H]2C(=O)N[C@@H](Cc2c[nH]cn2)C(=O)N[C@H](Cc2ccccc2)C(=O)N[C@@H](Cc2c[nH]cn2)C(=O)N[C@@H](Cc2c[nH]c3ccccc23)C(=O)N1)C(=O)N[C@@H](CCCNC(=N)N)C(N)=O, Synthetic cyclic peptide; also called Chem. 8) [Ac-Arg-c[Cys-Pro-His-D-Phe-His-Trp-Cys]-Pro-Pro-D-Arg-Glu-Nle-Arg-NH2] | 0.6 nM | 128 nM | 0.68 nM | 270 nM
Ac-CPH[dPhe(4-Me)]HWCPP[dR]E[Nle][dR][dR]-NH2 (disulfide 1-7; SMILES CCCC[C@H](NC(=O)[C@H](CCC(=O)O)NC(=O)[C@@H](CCCNC(=N)N)NC(=O)[C@@H]1CCCN1C(=O)[C@@H]1CCCN1C(=O)[C@@H]1CSSC[C@H](NC(C)=O)C(=O)N2CCC[C@H]2C(=O)N[C@@H](Cc2c[nH]cn2)C(=O)N[C@H](Cc2ccc(C)cc2)C(=O)N[C@@H](Cc2c[nH]cn2)C(=O)N[C@@H](Cc2c[nH]c3ccccc23)C(=O)N1)C(=O)N[C@H](CCCNC(=N)N)C(=O)N[C@H](CCCNC(=N)N)C(N)=O, Synthetic cyclic peptide; also called Chem. 9) [Ac-c[Cys-Pro-His-D-MePhe-His-Trp-Cys]-Pro-Pro-D-Arg-Glu-Nle-D-Arg-D-Arg-NH2] | 2.15 nM | 290 nM | 0.88 nM | 601 nM
Ac-CPH[dPhe(4-Cl)]HWCPP[dR]E[Nle][dR][dR]-NH2 (disulfide 1-7; SMILES CCCC[C@H](NC(=O)[C@H](CCC(=O)O)NC(=O)[C@@H](CCCNC(=N)N)NC(=O)[C@@H]1CCCN1C(=O)[C@@H]1CCCN1C(=O)[C@@H]1CSSC[C@H](NC(C)=O)C(=O)N2CCC[C@H]2C(=O)N[C@@H](Cc2c[nH]cn2)C(=O)N[C@H](Cc2ccc(Cl)cc2)C(=O)N[C@@H](Cc2c[nH]cn2)C(=O)N[C@@H](Cc2c[nH]c3ccccc23)C(=O)N1)C(=O)N[C@H](CCCNC(=N)N)C(=O)N[C@H](CCCNC(=N)N)C(N)=O, Synthetic cyclic peptide; also called Chem. 10) [Ac-c[Cys-Pro-His-D-Cl-Phe-His-Trp-Cys]-Pro-Pro-D-Arg-Glu-Nle-D-Arg-D-Arg-NH2] | 0.43 nM | 172 nM | 0.28 nM | –
Ac-C[Thz]H[dF]HWCPP[dR]E[Nle][dR][dR]-NH2 (disulfide 1-7; SMILES CCCC[C@H](NC(=O)[C@H](CCC(=O)O)NC(=O)[C@@H](CCCNC(=N)N)NC(=O)[C@@H]1CCCN1C(=O)[C@@H]1CCCN1C(=O)[C@@H]1CSSC[C@H](NC(C)=O)C(=O)N2CSC[C@H]2C(=O)N[C@@H](Cc2c[nH]cn2)C(=O)N[C@H](Cc2ccccc2)C(=O)N[C@@H](Cc2c[nH]cn2)C(=O)N[C@@H](Cc2c[nH]c3ccccc23)C(=O)N1)C(=O)N[C@H](CCCNC(=N)N)C(=O)N[C@H](CCCNC(=N)N)C(N)=O, Synthetic cyclic peptide; also called Chem. 12) [Ac-c[Cys-THAZ-His-D-Phe-His-Trp-Cys]-Pro-Pro-D-Arg-Glu-Nle-D-Arg-D-Arg-NH2] | 0.24 nM | 235 nM | 0.45 nM | 801 nM
Ac-C[Aib]H[dF]HWCPP[dR]E[Nle][dR][dR]-NH2 (disulfide 1-7; SMILES CCCC[C@H](NC(=O)[C@H](CCC(=O)O)NC(=O)[C@@H](CCCNC(=N)N)NC(=O)[C@@H]1CCCN1C(=O)[C@@H]1CCCN1C(=O)[C@@H]1CSSC[C@H](NC(C)=O)C(=O)NC(C)(C)C(=O)N[C@@H](Cc2c[nH]cn2)C(=O)N[C@H](Cc2ccccc2)C(=O)N[C@@H](Cc2c[nH]cn2)C(=O)N[C@@H](Cc2c[nH]c3ccccc23)C(=O)N1)C(=O)N[C@H](CCCNC(=N)N)C(=O)N[C@H](CCCNC(=N)N)C(N)=O, Synthetic cyclic peptide; also called Chem. 13) [Ac-c[Cys-Aib-His-D-Phe-His-Trp-Cys]-Pro-Pro-D-Arg-Glu-Nle-D-Arg-D-Arg-NH2] | 0.33 nM | 214 nM | 0.44 nM | 456 nM
Ac-CPH[dF]HWCPP[dR]E[Nle][dR]R-NH2 (disulfide 1-7; SMILES CCCC[C@H](NC(=O)[C@H](CCC(=O)O)NC(=O)[C@@H](CCCNC(=N)N)NC(=O)[C@@H]1CCCN1C(=O)[C@@H]1CCCN1C(=O)[C@@H]1CSSC[C@H](NC(C)=O)C(=O)N2CCC[C@H]2C(=O)N[C@@H](Cc2c[nH]cn2)C(=O)N[C@H](Cc2ccccc2)C(=O)N[C@@H](Cc2c[nH]cn2)C(=O)N[C@@H](Cc2c[nH]c3ccccc23)C(=O)N1)C(=O)N[C@H](CCCNC(=N)N)C(=O)N[C@@H](CCCNC(=N)N)C(N)=O, Synthetic cyclic peptide; also called Chem. 14) [Ac-c[Cys-Pro-His-D-Phe-His-Trp-Cys]-Pro-Pro-D-Arg-Glu-Nle-D-Arg-Arg-NH2] | 1.39 nM | 443 nM | 0.86 nM | 1160 nM
Ac-C[Thz]H[dPhe(4-F)]HWCPP[dR]E[Nle]RR-NH2 (disulfide 1-7; SMILES CCCC[C@H](NC(=O)[C@H](CCC(=O)O)NC(=O)[C@@H](CCCNC(=N)N)NC(=O)[C@@H]1CCCN1C(=O)[C@@H]1CCCN1C(=O)[C@@H]1CSSC[C@H](NC(C)=O)C(=O)N2CSC[C@H]2C(=O)N[C@@H](Cc2c[nH]cn2)C(=O)N[C@H](Cc2ccc(F)cc2)C(=O)N[C@@H](Cc2c[nH]cn2)C(=O)N[C@@H](Cc2c[nH]c3ccccc23)C(=O)N1)C(=O)N[C@@H](CCCNC(=N)N)C(=O)N[C@@H](CCCNC(=N)N)C(N)=O, Synthetic cyclic peptide; also called Chem. 17) [Ac-c[Cys-THAZ-His-D-F-Phe-His-Trp-Cys]-Pro-Pro-D-Arg-Glu-Nle-Arg-Arg-NH2] | 0.25 nM | 262 nM | 0.46 nM | 888 nM
Ac-CPH[dF]HWCPP[dR]E[Nle]RR-NH2 (disulfide 1-7; SMILES CCCC[C@H](NC(=O)[C@H](CCC(=O)O)NC(=O)[C@@H](CCCNC(=N)N)NC(=O)[C@@H]1CCCN1C(=O)[C@@H]1CCCN1C(=O)[C@@H]1CSSC[C@H](NC(C)=O)C(=O)N2CCC[C@H]2C(=O)N[C@@H](Cc2c[nH]cn2)C(=O)N[C@H](Cc2ccccc2)C(=O)N[C@@H](Cc2c[nH]cn2)C(=O)N[C@@H](Cc2c[nH]c3ccccc23)C(=O)N1)C(=O)N[C@@H](CCCNC(=N)N)C(=O)N[C@@H](CCCNC(=N)N)C(N)=O, Synthetic cyclic peptide; also called Chem. 3) [Ac-c[Cys-Pro-His-D-Phe-His-Trp-Cys]-Pro-Pro-D-Arg-Glu-Nle-Arg-Arg-NH2] | 1.4 nM | 511 nM | 1.03 nM | 778 nM
Ac-CPH[dF]HWCPP[dR]E[Nle][dR][dR]-NH2 (disulfide 1-7; SMILES CCCC[C@H](NC(=O)[C@H](CCC(=O)O)NC(=O)[C@@H](CCCNC(=N)N)NC(=O)[C@@H]1CCCN1C(=O)[C@@H]1CCCN1C(=O)[C@@H]1CSSC[C@H](NC(C)=O)C(=O)N2CCC[C@H]2C(=O)N[C@@H](Cc2c[nH]cn2)C(=O)N[C@H](Cc2ccccc2)C(=O)N[C@@H](Cc2c[nH]cn2)C(=O)N[C@@H](Cc2c[nH]c3ccccc23)C(=O)N1)C(=O)N[C@H](CCCNC(=N)N)C(=O)N[C@H](CCCNC(=N)N)C(N)=O, Synthetic cyclic peptide; also called Chem. 4) [Ac-c[Cys-Pro-His-D-Phe-His-Trp-Cys]-Pro-Pro-D-Arg-Glu-Nle-D-Arg-D-Arg-NH2] | 0.53 nM | 394 nM | 0.58 nM | 1070 nM

— patent US20210221867A1 (Novo Nordisk, published 2021)
